According to patent US20250066478A1 (IBIO, published 2025):

Target: T1, MUC16 membrane-proximal region (UniProt Q8WXI7 13810-14451)
T1 construct: domain: membrane-proximal region
T1 sequence: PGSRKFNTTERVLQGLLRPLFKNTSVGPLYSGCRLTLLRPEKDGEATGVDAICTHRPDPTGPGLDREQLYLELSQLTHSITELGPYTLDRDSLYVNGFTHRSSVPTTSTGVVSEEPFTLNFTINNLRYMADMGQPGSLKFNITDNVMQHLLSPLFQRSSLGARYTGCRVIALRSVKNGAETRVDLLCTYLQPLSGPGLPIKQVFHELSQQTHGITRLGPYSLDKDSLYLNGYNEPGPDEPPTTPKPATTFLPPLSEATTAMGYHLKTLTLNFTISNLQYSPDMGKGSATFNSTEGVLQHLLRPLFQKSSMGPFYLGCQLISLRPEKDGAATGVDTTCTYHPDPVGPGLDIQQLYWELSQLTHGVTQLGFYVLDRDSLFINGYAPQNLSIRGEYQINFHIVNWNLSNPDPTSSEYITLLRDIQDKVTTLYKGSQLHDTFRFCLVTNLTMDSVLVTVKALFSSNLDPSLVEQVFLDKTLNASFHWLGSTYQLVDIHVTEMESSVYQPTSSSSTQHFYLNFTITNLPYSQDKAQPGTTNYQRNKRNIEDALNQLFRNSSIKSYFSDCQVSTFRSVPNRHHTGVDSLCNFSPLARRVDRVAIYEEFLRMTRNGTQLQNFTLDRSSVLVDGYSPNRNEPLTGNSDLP
Assay: FIG. 7A; method not named in the legend (Octet BLI or flow cytometry per the methods)

B1: 21G6 long linker mask on VH domain (antibody)
VH: NFTLDRSSVLVDGYSPNRNEPLTGNSDLPGGGGSSGGPGPAGMKGLPGSQVQLQESGPGLVKPSQTLSLTCTVSGYSITSDYAWNWIRQPPGKGLEWIGYISYSGSTIYNPSLKSRISISVDTSKNQFSLKLNSVTAADTAVYYCATLGLDYWGQGTLVTVSS
VL: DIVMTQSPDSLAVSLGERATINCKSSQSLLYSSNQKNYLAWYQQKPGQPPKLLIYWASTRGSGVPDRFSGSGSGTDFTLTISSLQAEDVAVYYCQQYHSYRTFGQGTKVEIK
notes: the methods give the format as IgG or scFv
binding result: no binding
